Measured values published in patent publication US20130108549A1 (ADLYFE, published 2013).
pyrene = pyrene fluorescent label

Target: T1, Aβ42 oligomers (Homo sapiens (Human), UniProt P05067 672-713)
T1 construct: also called oligomers of Aβ42 (including dimers, trimers, tetramers, hexamers and 12-mers); oligomeric forms of Aβ42
Assay: pyrene excimer fluorescence, excitation 350 nm, scan 360-600 nm

T1 sequence (P05067 672-713 limits assumed): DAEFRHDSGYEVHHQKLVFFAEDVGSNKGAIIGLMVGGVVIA

B1: Peptide probe specific for Aβ (SEQ ID NO:36) labeled at each terminus with pyrene (peptide)
peptide: pyrene-KLVFFAEDVGSNKGAIIGLM-pyrene
notes: also called Aβ peptide probe; dipyrene labeled peptide probe
  binding result: binds
